Measured values reported in US20230392126A1, “TISSUE ORGANOIDS” (priority 2016, published 2023).

What was measured:
[1] = Cocaine hydrolysis activity in vitro (clearance assay with conditioned medium)
[2] = test system: epidermal progenitor cells; test: Suicide gene-induced cell death in epidermal progenitor cells upon prodrug treatment; format: cell-based; conditions: ganciclovir and 5-fluorocytosine, respectively; data not shown
From the text: To test this possibility, a Rosa26 targeting vector encoding phenylalanine ammonia lyase (PAL) (SEQ ID NO: 51) together with inducible “suicide” genes HSV-TK (Herpes Simplex Virus Thymidine Kinase) (SEQ ID NO: 52) and yCD (yeast cytosine deaminase) (SEQ ID NO: 53) was used for epidermal progenitor cell transfection.

[3] = Ethanol-induced CPP in GLP1 and GWT mice; format: in vivo, mouse; conditions: 2 g/kg ethanol i.p., dox food, vs mock grafted (GWT)
From the text: FIG. 26. mGLP1 expression on ethanol-induced CPP. […] Following 2 free explorations (Pre-test) on day 1, separate groups of GLP1 and GWT mice (n=9 each) received alternative ethanol (2 g/kg) and saline i.p. injections twice daily for the next 4 days, as previously described (Chen et al., Dopamine D1 and D3 receptors are differentially involved in cue-elicited cocaine seeking. J. Neurochem. 114, 530-541 (2010); Kong et al., Activation of dopamine D3 receptors inhibits reward-related learning induced by cocaine. Neurosci. 176, 152-161 (2011)). CPP expression was tested on day 6. Results represent mean±SEM time spent on the drug-paired side minus the saline-paired side. […] F value was calculated and Newman-Keuls post-hoc test was performed (Chen et al., 2010; Kong et al., 2011). […]
(§1) Following 2 free explorations (Pre-test) on day 1, separate groups of GLP1 and GWT mice (n=9 each) received alternative ethanol (2 g/kg) and saline i.p. injections twice daily for the next 4 days, as previously described (Chen et al., Dopamine D1 and D3 receptors are differentially involved in cue-elicited cocaine seeking. J. Neurochem. 114, 530-541 (2010); Kong et al., Activation of dopamine D3 receptors inhibits reward-related learning induced by cocaine. Neurosci. 176, 152-161 (2011)). […] F value was calculated and Newman-Keuls post-hoc test was performed (Chen et al., 2010; Kong et al., 2011). […]

[4] = Nicotine-induced CPP in GLP1 and GWT mice; format: in vivo, mouse; conditions: 0.4 mg/kg nicotine i.p., dox food, vs GWT
Experimental: FIG. 29 mGLP1 expression on nicotine-induced CPP. […] Following 2 free explorations (Pre-test) on day 1, separate groups of GLP1 and GWT mice (n=7 each) received alternative nicotine (0.4 mg/kg) and saline i.p. injections twice daily for the next 4 days, as previously described (Chen et al., 2010; Kong et al., 2011). CPP expression was tested on day 6. Results represent mean±SEM time spent on the drug-paired side minus the saline-paired side. Repeated-measures ANOVA with test days as the within group factor and status of grafting as the between-subject factor were used (Chen et al., 2010; Kong et al., 2011). F value was calculated and Newman-Keuls post-hoc test was performed (Chen et al., 2010; Kong et al., 2011). GLP1 and WT mice were on dox food for the entire duration.
as §1, with “mGLP1” for “GLP1”, “(n=7” for “mice (n=9”, “nicotine (0.4 mg/kg)” for “ethanol (2 g/kg)”

[5] = mGLP1 expression in blood/plasma of grafted mice fed dox food; format: in vivo, mouse
Experimental: The epidermal progenitor cells were isolated from newborn pups of CD1 or C57BL/6J mice. […] Targeted clones were selected in the medium containing puromycin, and correct incorporation into the Rosa26 locus was confirmed by PCR and southern blots (FIG. 25B). Mouse skin substitute was prepared by seeding the targeted cells to the acellularized newborn dermis and differentiation upon exposure to the air/liquid interphase and the resultant tissues were transplanted to CD1 or C57BL/6J mice (GLP1).
Expression of mGLP1 in GLP1 mice was stable for up to 4 months in the presence of dox (FIG. 25D).
There was a dose-dependent release of GLP1 in plasma (not shown). Expression of mGLP1 in mGLP1 mice was stable for up to 4 months in the presence of dox (FIG. 25D).

B1: mBChE: mouse BChE with similar point mutations (SEQ ID NO: 43) (protein)
chain: MQTQHTKVTQTHFLLWILLLCMPFGKSHTEEDFIITTKTGRVRGLSMPVLGGTVTAFLGIPYAQPPLGSLRFKKPQPLNKWPDIHNATQYANSCYQNIDQAFPGFQGSEMWNPNTNLSEDCLYLNVWIPVPKPKNATVMVWIYGGGFQTGTSSLPVYDGKFLARVERVIVVSMNYRVGALGFLAFPGNPDAPGNMGLFDQQLALQWVQRNIAAFGGNPKSITIFGESSGAASVSLHLLCPQSYPLFTRAILESGSANAPWAVKHPEEARNRTLTLAKFTGCSKENEMEMIKCLRSKDPQEILRNERFVLPSDSALGINFGPTVDGDFLTDMPHTLLQLGKVKKAQILVGVNKDEGTWFLVGGAPGFSKDNDSLITRKEFQEGLNMYFPGVSRLGKEAVLFYYVDWLGEQSPEVYRDALDDVIGDYNIICPALEFTKKFAELENNAFFYFFEHRSSKLPWPEWMGVMHGYEIEFVFGLPLGRRVNYTRAEEIFSRSIMKTWANFAKYGHPNGTQGNSTMWPVFTSTEQKYLTLNTEKSKIYSKLRAPQCQFWRLFFPKVLEMTGDIDETEQEWKAGFHRWSNYMMDWQNQFNDYTSKKESCTAL
modifications: Mouse mutant BChE
cocaine hydrolysis activity of conditioned medium [1]: only residual activity in cocaine hydrolysis

B2: yCD: inducible suicide gene, yeast cytosine deaminase (SEQ ID NO: 53), prodrug 5-fluorocytosine (protein)
chain: MVTGGMASKWDQKGMDIAYEEAALGYKEGGVPIGGCLINNKDGSVLGRGHNMRFQKGSATLHGEISTLENCGRLEGKVYKDTTLYTTLSPCDMCTGAIIMYGIPRCVVGENVNFKSKGEKYLQTRGHEVVVVDDERCKKIMKQFIDERPQDWFEDIGE
modifications: misc_feature 1..474 yCD
cell death upon prodrug treatment [2]: efficiently induced cell death upon treatment with prodrugs

B3: mGLP1: Gly8-mutant mGLP1 and mouse IgG-Fc fragment fusion protein (SEQ ID NO: 45), dox-dependent promoter, from skin grafts (protein)
chain: MYRMQLLSCIALSLALVTNSHGEGTFTSDVSSYLEGQAAKEFIAWLVKGRGRSGCKPCICTVPEVSSVFIFPPKPKDVLTITLTPKVTCVVVDISKDDPEVQFSWFVDDVEVHTAQTQPREEQFNSTFRSVSELPIMHQDWLNGKEFKCRVNSAAFPAPIEKTISKTKGRPKAPQVYTIPPPKEQMAKDKVSLTCMITDFFPEDITVEWQWNGQPAENYKNTQPIMDTDGSYFVYSKLNVQKSNWEAGNTFTCSVLHEGLHNHHTEKSLSHSPGK
modifications: mGLP-1 (GLY8 mutant with IgG-Fc fusion)
ethanol-induced CPP [3]: attenuated ethanol-induced CPP
nicotine-induced CPP [4]: attenuated nicotine-induced CPP
time to significantly enhanced levels of mGLP1 in the blood ([5]; dox food): ≤ 3 days
duration of stable mGLP1 expression ([5]; in the presence of dox): up to 4 months
release of mGLP1 in plasma vs dox dose ([5]; not shown): dose-dependent release of mGLP1 in plasma
